According to article PMC6385295 (Nature Communications, 2019):
Ends that are not written are not given here.

Legend:
[1] = target: T1, HLA-B*73:01 on One Lambda LABScreen Single Antigen beads (Homo sapiens, HLA-B*73:01, strain); experiment: One Lambda LABScreen Single Antigen bead assay (OL-SAB), HLA Class I; 2E3-IgG1 at 1 μg mL^−1, diluted 20× in negative control serum; HLA antigens on beads; settings: both partners purified
T1 construct: HLA-B*73:01 α chain, human; human beta-2-microglobulin; β2m and peptide are surmised for a class I HLA antigen; source: bought: One Lambda Inc. (LABScreen Single Antigen HLA Class I beads); copies: + +

[2] = target: T2, HLA-A*11:01 on One Lambda LABScreen Single Antigen beads (Homo sapiens, HLA-A*11:01, strain); experiment: as above; settings: both partners purified
T2 construct: HLA-A*11:01 α chain, human; human beta-2-microglobulin; β2m and peptide are surmised for a class I HLA antigen; source: bought: One Lambda Inc. (LABScreen Single Antigen HLA Class I beads); copies: + +

[3] = target: T3, HLA-A*43:01 on One Lambda LABScreen Single Antigen beads (Homo sapiens, HLA-A*43:01, strain); experiment: as above; settings: both partners purified
T3 construct: HLA-A*43:01 α chain, human; human beta-2-microglobulin; β2m and peptide are surmised for a class I HLA antigen; source: bought: One Lambda Inc. (LABScreen Single Antigen HLA Class I beads); copies: + +

[4] = target: T4, HLA-A*26:01 on One Lambda LABScreen Single Antigen beads (Homo sapiens, HLA-A*26:01, strain); experiment: as above; settings: both partners purified
T4 construct: HLA-A*26:01 α chain, human; human beta-2-microglobulin; β2m and peptide are surmised for a class I HLA antigen; source: bought: One Lambda Inc. (LABScreen Single Antigen HLA Class I beads); copies: + +

[5] = target: T5, HLA-A*01:01 on One Lambda LABScreen Single Antigen beads (Homo sapiens, HLA-A*01:01, strain); experiment: as above; settings: both partners purified
T5 construct: HLA-A*01:01 α chain, human; human beta-2-microglobulin; β2m and peptide are surmised for a class I HLA antigen; source: bought: One Lambda Inc. (LABScreen Single Antigen HLA Class I beads); copies: + +

[6] = target: T6, HLA-A*34:01 on One Lambda LABScreen Single Antigen beads (Homo sapiens, HLA-A*34:01, strain); experiment: as above; settings: both partners purified
T6 construct: HLA-A*34:01 α chain, human; human beta-2-microglobulin; β2m and peptide are surmised for a class I HLA antigen; source: bought: One Lambda Inc. (LABScreen Single Antigen HLA Class I beads); copies: + +

[7] = target: T7, HLA-A*80:01 on One Lambda LABScreen Single Antigen beads (Homo sapiens, HLA-A*80:01, strain); experiment: as above; settings: both partners purified
T7 construct: HLA-A*80:01 α chain, human; human beta-2-microglobulin; β2m and peptide are surmised for a class I HLA antigen; source: bought: One Lambda Inc. (LABScreen Single Antigen HLA Class I beads); copies: + +

[8] = target: T8, HLA-A*36:01 on One Lambda LABScreen Single Antigen beads (Homo sapiens, HLA-A*36:01, strain); experiment: as above; settings: both partners purified
T8 construct: HLA-A*36:01 α chain, human; human beta-2-microglobulin; β2m and peptide are surmised for a class I HLA antigen; source: bought: One Lambda Inc. (LABScreen Single Antigen HLA Class I beads); copies: + +

[9] = target: T9, HLA-A*66:01 on One Lambda LABScreen Single Antigen beads (Homo sapiens, HLA-A*66:01, strain); experiment: as above; settings: both partners purified
T9 construct: HLA-A*66:01 α chain, human; has Asp90; human beta-2-microglobulin; β2m and peptide are surmised for a class I HLA antigen; source: bought: One Lambda Inc. (LABScreen Single Antigen HLA Class I beads); copies: + +

[10] = target: T10, HLA-A*34:02 on One Lambda LABScreen Single Antigen beads (Homo sapiens, HLA-A*34:02, strain); experiment: as above; settings: both partners purified
T10 construct: HLA-A*34:02 α chain, human; human beta-2-microglobulin; β2m and peptide are surmised for a class I HLA antigen; source: bought: One Lambda Inc. (LABScreen Single Antigen HLA Class I beads); copies: + +

[11] = target: T11, HLA-A*25:01 on One Lambda LABScreen Single Antigen beads (Homo sapiens, HLA-A*25:01, strain); experiment: as above; settings: both partners purified
T11 construct: HLA-A*25:01 α chain, human; human beta-2-microglobulin; β2m and peptide are surmised for a class I HLA antigen; source: bought: One Lambda Inc. (LABScreen Single Antigen HLA Class I beads); copies: + +

[12] = target: T12, refolded recombinant HLA-A*11:01 monomer (peptide-HLA complex) (Homo sapiens, HLA-A*11:01, strain, also: biotinylated in vitro by biotin ligase, peptide-HLA complex); experiment: ELISA; affinity determination: streptavidin-coated plate, increasing concentrations of biotinylated antigen (16 h) and of primary antibody (8 h), room temperature; goat-anti-human IgG-HRP; settings: both partners purified
T12 construct: HLA-A*11:01 α chain, human, extracellular portion; human beta-2-microglobulin (β2m); the peptide of the crystallised complex is in PDB 6ID4; The methods describe one preparation (biotinylated) for all HLA monomers; copies: + +
T12 chain 1: not shown
T12 chain 2: not shown
T12 chain 3: AIFQSSMTK

[13] = target: T12, refolded recombinant HLA-A*11:01 …; experiment: quartz crystal microbalance (QCM); Attana Cell A200, 25 °C, PBS running buffer; biotinylated refolded HLA-A*11:01 held on a streptavidin-saturated LNB-carboxyl chip; 2E3-IgG1 injected at 2.5 to 20 nM, single cycle kinetics; settings: both partners purified
[14] = target: T13, HLA-A*11:01 on the surface of HLA-A*11:01-positive EBV-BCLs (Homo sapiens, HLA-A*11:01, strain); experiment: flow cytometry on cells; 0.5×10^6 EBV-BCLs with 5 μg mL^−1 mouse chimeric 2E3, 4 °C, 2 h, PBS with 3% FBS; AlexaFluor-488 goat-anti-mouse IgG; settings: one partner purified
T13 construct: HLA-A*11:01 α chain, endogenous on Epstein-Barr virus transformed B-cell lines; human beta-2-microglobulin, endogenous; The cells carry other HLA alleles too; also called A*11:01 homozygous EBV-BCLs; HLA-A*11:01 expressing target cell lines; source: endogenous, on HLA-typed EBV-BCLs; copies: + +

| Binder | binding result [1] | binding result [2] | binding result [3] | binding result [4] | binding result [5] | binding result [6] | binding result [7] | binding result [8] | binding result [9] | binding result [10] | binding result [11] | Kd [12] [nM] | Kd [13] [nM] | koff [13] [s⁻¹] | kon [13] [M⁻¹ s⁻¹] | binding result [14] |
| --- | --- | --- | --- | --- | --- | --- | --- | --- | --- | --- | --- | --- | --- | --- | --- | --- |
| human monoclonal alloantibody 2E3, recombinant human IgG1 (antibody, V domains shown, variable region of the 2E3 heavy chain; constant region of human IgG1 from the heavy chain expression vector; full-length 2E3 light chain; IgG1; isolated from a human Fab phage library (Humanyx) by panning on HLA-A*11:01; also called 2E3-IgG1; source: HEK293, cotransfected, purified from culture supernatants (protein G Sepharose)) VH: EVQLVQSGAEVKKPGASVKVSCKASGYTFTGYYMHWVRQAPGQGLEWMGWINPNSGGTSYAQKFQGRVTMTRDTSTSTVYMELSSLRSEDTAVYYCARVTTVIAGPVFDYWGQGTLVTVSS VL: QAVLTQPSSLSASPGASASLTCTLRSGINVGPYNIYWYQQKPGSPPQYLMRYKSDPDKHQGSAVPSRFSGSKDASANAGILLISGLQSEDEADYYCMIWHNNAWVFGGGTKLTVL | binds | binds | binds | binds | binds | binds | binds | binds | binds | binds | binds | 0.16 | 10.3 | 0.00033 | 104000 | – |
| mouse chimeric form of antibody 2E3 (mouse IgG1 constant region) (antibody, V domains shown, variable region of the 2E3 heavy chain; constant region of mouse IgG1 from the heavy chain expression vector; full-length 2E3 light chain; used for flow cytometry, detected with goat-anti-mouse IgG; also called mouse Fc chimeric antibody; source: HEK293, cotransfected, purified from culture supernatants (protein G Sepharose)) VH: EVQLVQSGAEVKKPGASVKVSCKASGYTFTGYYMHWVRQAPGQGLEWMGWINPNSGGTSYAQKFQGRVTMTRDTSTSTVYMELSSLRSEDTAVYYCARVTTVIAGPVFDYWGQGTLVTVSS VL: QAVLTQPSSLSASPGASASLTCTLRSGINVGPYNIYWYQQKPGSPPQYLMRYKSDPDKHQGSAVPSRFSGSKDASANAGILLISGLQSEDEADYYCMIWHNNAWVFGGGTKLTVL | – | – | – | – | – | – | – | – | – | – | – | – | – | – | – | binds |
